# Test results published in patent US20190225691A1 (SHANGHAI HENLIUS BIOTECH, published 2019).
# Biological target: T1, human PD-L1 ECD-His (human, UniProt Q9NZQ7 19-238)
# T1 construct: extracellular domain; Analyte in all SPR and BLI runs; also called hPD-L1_ECD-His; hPD-L1 ECD-His; not shown: His tag
# Assay: Fab ELISA screen after panning on hPD-L1-His; coated antigen not named
# T1 sequence (Q9NZQ7 19-238): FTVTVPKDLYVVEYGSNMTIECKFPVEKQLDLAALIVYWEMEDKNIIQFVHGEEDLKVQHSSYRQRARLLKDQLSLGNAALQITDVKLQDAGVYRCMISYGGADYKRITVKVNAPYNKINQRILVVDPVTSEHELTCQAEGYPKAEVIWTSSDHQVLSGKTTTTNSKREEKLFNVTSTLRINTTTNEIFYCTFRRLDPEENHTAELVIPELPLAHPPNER
binder,measurement,value
"PL3#7-54 Fab (Fab, V domains shown) VH: QVQLVQSGAEVKKPGSSVKVSCKASGGTFSSYPISWVRQAPGQGLEWMGRIIPILGIADYAQKFQGRVTITADKSTSTAYMELSSLRSEDTAVYYCARSRPGYAFGAFDIWGQGTLVTVSS VL: QSVVTQPPPVSGAPGQRVTISCTGSSSNIGQGYDVHWYQQLPGTAPKLLIYANSNRPSGVPDRFSGSKSGTSASLAITGLQAEDEADYYCQTYDSSLSARVVFGGGTKLTVL",binding result,binds
